Key:
[1] = single-arm trial, all patients treated; cited from earlier work
[2] = cited from earlier work
FcRn receptor = FcRn receptor (Homo sapiens, UniProt P55899); experiment: FcRn binding analysis by Biacore (steady state); details: pH 6.0, PBS with 0.05% tween-20
Description: Binding to the FcRn receptor was determined at pH 7.4 and pH 6.0 using a Biacore T200 (serial no. 1909913) using single-cycle kinetics and running Biacore T200 Evaluation Software V 2.0.1. A CM5 chip was coupled with FcRn in sodium acetate pH 5.5 using standard amine chemistry. Serial dilution of bispecifics and controls were measured in PBS pH 7.4 with 0.05% tween-20 (9 points; 2-fold dilution series; 8000 nM Top conc.) and in PBS pH 6.0 with 0.05% tween-20 (3 points; 2-fold dilution series; 4000 nM Top conc.). A flow rate of 30 µl/min was used and an association time of 40 seconds and dissociation time of 75 seconds. Steady state analysis was used to analyze samples.

MOLT-4 cells = experiment: CD3 binding analysis by FACS on CD3 negative MOLT-4 cells; details: MOLT-4 (CD3 negative)
Description: (§1) Both cell lines were cultured in RPMI 1640 supplemented with 1% pen/strep and 10% fetal bovine serum at a concentration of 2 x 10^5 to 1 x 10^6 cells/ml. Cells were washed in fresh medium before the experiment and 100,000 cells per well were seeded in a 96-wells plate (duplicate wells). The dilution series of 6 antibodies were made in phosphate-buffered saline (PBS). The antibodies were diluted 10 times in the cell suspension and incubated at 4° C. in the dark for 30 minutes. After incubation, the cells were washed twice in cold PBS / 0.5% BSA, and incubated with anti-HIS-PE (only for 200) or anti-IgG1-PE (for all other compounds) at 4° C., in the dark for 30 minutes. After the second incubation step, the cells were washed twice. 7AAD was added as a live-dead staining. Detection of the fluorescence in the Yellow-B channel (anti-IgG1-PE and anti-HIS-PE) and the Red-B channel (7AAD) was done with the Guava 5HT flow cytometer. Median fluorescence intensity in the Yellow-B channel (anti-IgG1-PE and anti-HIS-PE) in life cells was determined with Kaluza software.

CD3 = molecular target: T1, CD3 (Homo sapiens, UniProt P07766); experiment: CD3 binding analysis by FACS on CD3-positive Jurkat E6.1 cells; details: for median fluorescence intensity: Jurkat E6.1 (CD3-positive), median of duplicate
T1 construct: Jurkat E6.1 cells, which express CD3 on the cell surface; endogenous in cells; host or cells: Jurkat E6.1
T1 sequence (P07766 23-207): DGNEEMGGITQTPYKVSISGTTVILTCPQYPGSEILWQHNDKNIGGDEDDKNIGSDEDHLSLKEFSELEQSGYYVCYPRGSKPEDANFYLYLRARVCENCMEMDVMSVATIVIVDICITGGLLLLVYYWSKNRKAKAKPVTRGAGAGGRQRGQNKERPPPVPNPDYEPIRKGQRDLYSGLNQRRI
T1 sequence (P04234 22-171 partner): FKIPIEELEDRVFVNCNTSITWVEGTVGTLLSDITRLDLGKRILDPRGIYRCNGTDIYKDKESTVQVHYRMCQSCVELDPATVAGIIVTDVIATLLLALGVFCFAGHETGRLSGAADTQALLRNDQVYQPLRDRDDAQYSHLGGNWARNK
T1 sequence (P09693 23-182 partner): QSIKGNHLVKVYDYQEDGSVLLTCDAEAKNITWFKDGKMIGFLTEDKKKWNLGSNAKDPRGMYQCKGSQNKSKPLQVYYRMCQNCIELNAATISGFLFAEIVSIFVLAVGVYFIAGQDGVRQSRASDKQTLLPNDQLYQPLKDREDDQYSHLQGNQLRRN
T1 sequence (P20963 22-164 partner): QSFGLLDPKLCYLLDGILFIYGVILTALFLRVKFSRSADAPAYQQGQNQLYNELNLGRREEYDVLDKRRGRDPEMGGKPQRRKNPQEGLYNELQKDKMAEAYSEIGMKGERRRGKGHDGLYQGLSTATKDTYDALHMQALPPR
Description: as §1

FcRn receptor, sequence (P55899 24-297 limits assumed): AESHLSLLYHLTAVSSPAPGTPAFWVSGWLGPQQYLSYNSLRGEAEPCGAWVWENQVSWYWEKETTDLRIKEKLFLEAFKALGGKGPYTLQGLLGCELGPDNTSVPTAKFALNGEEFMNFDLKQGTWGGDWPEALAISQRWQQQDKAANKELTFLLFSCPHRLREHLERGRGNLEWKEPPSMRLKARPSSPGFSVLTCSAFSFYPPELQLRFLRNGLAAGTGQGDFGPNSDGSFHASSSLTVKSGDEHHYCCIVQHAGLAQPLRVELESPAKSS
FcRn receptor, sequence (P61769 21-119 partner): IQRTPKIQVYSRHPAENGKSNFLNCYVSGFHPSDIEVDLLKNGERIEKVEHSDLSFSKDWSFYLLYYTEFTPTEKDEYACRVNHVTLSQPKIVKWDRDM

Row | Substance | complete remission rate [1] | minimal residual disease (MRD) response [1] | serum half-life [2] | RMAX (RU) (FcRn receptor) | median fluorescence intensity (MOLT-4 cells; 1 nM) | median fluorescence intensity (MOLT-4 cells; 10 nM) | median fluorescence intensity (MOLT-4 cells; 100 nM) | median fluorescence intensity (MOLT-4 cells; 1000 nM) | median fluorescence intensity (CD3; 0.32 nM) | median fluorescence intensity (CD3; 1 nM) | median fluorescence intensity (CD3; 3.16 nM) | median fluorescence intensity (CD3; 10 nM) | median fluorescence intensity (CD3; 31.6 nM) | median fluorescence intensity (CD3; 100 nM) | median fluorescence intensity (CD3; 316 nM) | median fluorescence intensity (CD3; 1000 nM) | binding to the CD3 positive Jurkat E6.1 cell line (CD3; Jurkat E6.1, result in words)
1 | blinatumomab | 32% | 31% | 2.11 h |  |  |  |  |  |  |  |  |  |  |  |  |  | 
2 | rituximab |  |  |  | 96.4 RU | 78.96 | 75.92 | 68.42 | 67.39 | 58.28 | 56.55 | 55.37 | 60.83 | 58.71 | 55.49 | 54.99 | 66.36 | not
